The record followed here is US20250237651A1 (ASAHI KASEI, published 2025).

For assay [1], the target named is T1, Polypeptide 1 (all of the amino acid sequence of ribosomal protein L7/L12 of Neisseria gonorrhoeae) (Neisseria gonorrhoeae, UniProt B4RQW1 1-123).
T1 construct: Expressed in E. coli and purified as a fusion protein through a vector-derived tag
T1 sequence: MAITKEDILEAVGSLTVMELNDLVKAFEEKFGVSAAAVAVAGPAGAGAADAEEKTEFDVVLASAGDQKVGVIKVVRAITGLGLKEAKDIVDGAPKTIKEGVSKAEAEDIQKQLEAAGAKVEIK
Description: ELISA, polypeptide solid-phased at 2 ug/mL, antibody 100 ng/ml; + = absorbance 450 nm 0.1 or greater. On the technique in general: An ELISA detects its analyte on a solid surface through an enzyme-linked reagent.

Assay [2] addresses T2, Polypeptide 3 (part of Neisseria gonorrhoeae L7/L12 lacking amino acid residues 1 to 63) (Neisseria gonorrhoeae, UniProt B4RQW1 64-123).
T2 construct: Purified as a tagged fusion protein
T2 sequence: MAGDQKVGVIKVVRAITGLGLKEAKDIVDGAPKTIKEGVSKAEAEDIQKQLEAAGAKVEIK
Described as above.

Assay [3] deals with T3, Polypeptide 2 (part of Neisseria gonorrhoeae L7/L12 lacking amino acid residues 1 to 14) (Neisseria gonorrhoeae, UniProt B4RQW1 15-123).
T3 construct: Purified as a tagged fusion protein
The description is as above.

The target in assay [4] is T4, Polypeptide 4 (part of Neisseria gonorrhoeae L7/L12 lacking amino acid residues 102 to 123) (Neisseria gonorrhoeae, UniProt A1KRG5 1-101).
T4 construct: Purified as a tagged fusion protein
T4 sequence: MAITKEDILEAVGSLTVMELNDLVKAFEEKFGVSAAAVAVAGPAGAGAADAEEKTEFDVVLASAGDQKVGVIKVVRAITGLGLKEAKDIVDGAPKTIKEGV
Description: ELISA, polypeptide solid-phased at 2 ug/mL, HRP-labeled anti-IgG.

Assay [5] concerns the target T5, Polypeptide 5 (all of the L7/L12 amino acid sequence of Neisseria meningitidis) (Neisseria meningitidis, UniProt A1KRG5 1-123).
T5 construct: Differs from Neisseria gonorrhoeae L7/L12 only at residue 115 (glutamic acid instead of alanine); Purified as a tagged fusion protein
T5 sequence: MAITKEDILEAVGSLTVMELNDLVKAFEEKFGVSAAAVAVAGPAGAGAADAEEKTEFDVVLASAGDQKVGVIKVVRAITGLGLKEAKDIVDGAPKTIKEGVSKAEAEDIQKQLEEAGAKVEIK
The description is as above.

For assay [6], the target named is T6, Ribosomal protein L7/L12 of Neisseria gonorrhoeae (in extracted sample solution of the bacteria) (Neisseria gonorrhoeae, UniProt B4RQW1 1-123).
T6 construct: also called Neisseria gonorrhoeae L7/L12; Neisseria gonorrhoeae-derived antigen
T6 sequence: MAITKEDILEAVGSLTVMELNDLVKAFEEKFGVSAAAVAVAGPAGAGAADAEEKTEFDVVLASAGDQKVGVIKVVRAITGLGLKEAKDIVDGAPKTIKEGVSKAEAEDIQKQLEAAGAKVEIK
As to the kind of experiment: sandwich ELISA, primary (capture) NG1, HRP-labelled secondary NG3, N. gonorrhoeae extract 1e6 cfu/mL; Absorbance difference A 1.0 or greater.

Assay [7] has as its target T7, Ribosomal protein L7/L12 of Neisseria meningitidis (in extracted sample solution of the bacteria) (Neisseria meningitidis, UniProt A1KRG5 1-123).
T7 construct: also called Neisseria meningitidis L7/L12
T7 sequence: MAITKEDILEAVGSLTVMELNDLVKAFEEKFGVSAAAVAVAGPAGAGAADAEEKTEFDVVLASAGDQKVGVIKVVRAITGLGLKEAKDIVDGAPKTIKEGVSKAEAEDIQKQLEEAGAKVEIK
As to the kind of experiment: sandwich ELISA, capture NG3, HRP-labelled NG1, N. meningitidis extract.

B1: Antibody NG1 (antibody, V domains shown)
VH: EVQLQQSGAELVKPGASVKLSCTASGFNIKDTYIYWVKQRPEQGLEWIGRIDPANGHTKCDPKFQGKATITSDTSSNTAYLQLNSLTSEDTAVYYCSKGYFHYWGQGTTLTVSS
VL: DIQMTQSPSSLSASLGERVSLTCRASQEISGYLSWLQQKPDGTIKRLIYAASTLDSGVPKRFSGSRSGSDYSLTISSLESEDFADYYCQQYDSYPWTFGGGTKLEIK
notes: Mouse hybridoma monoclonal antibody raised against polypeptide 1; detected with an anti-IgG antibody; HRP-labelled or gold-colloid-labelled when used as detection antibody; also called Antibody species A
B1: the binding result in assay [1] was “binds”; in assay [2], “binds”; in assay [3], “binds”; in assay [4] it was “no binding”; in assay [5], “no binding”; in assay [6], “binds”. Besides, the binding result in assay [7] is “no binding”.
